Columns and labels:
[1] = Hydrolysis with endoglucanase preparations, corn stover; format: biochemical; conditions: with CBHI and CBHII of T. reesei; 48 h, 45° C., pH 5.0
Procedure: The preparations containing the endoglucanases were compared in hydrolysis studies mixed with the purified CBH/Cel7 and CBH/Cel6 enzymes on several pre-treated substrates. Culture filtrates of T. reesei, containing different cloned endoglucanase enzymes were obtained as described in Example 19. The enzymes were enriched by removing thermolabile proteins from the mixtures by a heat treatment (60° C., 2 h, pH 5) and the supernatant was used for the hydrolysis studies. In addition, pure T. reesei cellulases (purified as described by Suurnäkki et al., 2000) were used in the enzyme mixtures. The endoglucanases used in the experiment were:
Steam exploded corn stover fibre (steam pre-treatment at 210° C. for 5 min), dry matter 31.0% (SECS).
The endoglucanases to be studied (dosage 840 nkat/g dry matter, based on endoglucanase activity against HEC according to IUPAC, 1987) were used either with cellobiohydrolases of T. reesei (CBHI/Cel7A, 8.1 mg/g d.m. and CBHII/Cel6A, 2.0 mg/g d.m.) or with Thermoascus aurantiacus Cel7A with genetically attached CBD of T. reesei (10.1 mg/g d.m.). Purified (Suurnäkki et al., 2000) EGI (Cel7B) and EGII (Cel5A) of T. reesei were also included in the experiments for comparison. All mixtures were supplemented with additional β-glucosidase from Novozym 188 (to make the total β-glucosidase dosage 560 nkat/g d.w., the relatively high dosage was used to compensate the differences in the background activities of the different EG preparations). Triplicate tubes were incubated in mixing at 45° C. for 48 h and reference samples with inactivated enzymes and corresponding substrates were prepared. The release of hydrolysis products was measured as reducing sugars with DNS method using glucose as standard (Table 31).

[2] = Isoelectric focusing (PhastSystem), pI of purified protein; format: physicochemical; conditions: IEF gel
Procedure: The sample was dissolved in water and applied to a Superdex 75 HR 10/30 gel filtration column equilibrated with 20 mM sodium phosphate pH 6.0, containing 0.15 M NaCl. Fractions were collected and those containing endoglucanase activity were combined. The protein eluate was judged to be pure by SDS-polyacrylamide gel electrophoresis and the molecular mass was evaluated on the basis of molecular mass standards (prestained SDS-PAGE standards, Broad Range, Bio-Rad) to be 54 kDa. The pI of the purified protein, designated as Ct EG—54 was determined with PhastSystem (Pharmacia) to be ca 5.5.
The sample was applied to a Sephacryl S-100 HR 26/60 gel filtration column equilibrated with 50 mM sodium acetate buffer pH 5.0, containing 0.05 M NaCl. The protein fraction containing endoglucanase activity was eluted from the column with a retention volume corresponding to a molecular weight of 16 kDa. Collected fractions were combined, concentrated and gel filtration was repeated. The protein eluate was judged to be pure by SDS-polyacryl amide gel electrophoresis and the molecular weight was evaluated to be 28 kDa. The pI of the purified protein, designated as Ta EG—28, was determined in an IEF gel (PhastSystem, Pharmacia) to be about 3.5. The specific activity of Ta EG—28 at 50° C. was determined to be 4290 nkat/mg (procedure of IUPAC 1987, using CMC as substrate).
The active material from the anion exchange chromatography was applied to a Sephacryl S-300 HR 26/60 column equilibrated with 20 mM sodium phosphate pH 6.5, containing 0.15 M NaCl. The protein with β-glucosidase activity was eluted with a retention volume corresponding to a molecular weight of 243 kDa. The protein was judged to be pure by SDS-polyacrylamide gel electrophoresis and the molecular weight was evaluated to be 101 kDa. The pI of the purified protein, designated as At βG—101, was determined in an IEF gel (PhastSystem, Pharmacia) to be in the area of 5.6-4.9. The specific activity of At βG—101 at 50° C. was determined to be 1100 nkat/mg (using 4-nitrophenyl-β-D-glucopyranoside as substrate, Bailey and Linko, 1990).
The active material from the cation exchange chromatography was applied to a Sephacryl S-300 HR 26/60 column equilibrated with 20 mM sodium phosphate pH 7.0, containing 0.15 M NaCl. The protein with β-glucosidase activity was eluted with a retention volume corresponding to a molecular weight of 294 kDa. […] The protein was judged to be pure by SDS-polyacrylamide gel electrophoresis and the molecular weight was evaluated to be 81 kDa, representing most likely the monomeric form of the protein. […] The specific activity of the purified protein, designated as Ta βG—81, at 50° C. was determined to be 600 nkat/mg using 4-nitrophenyl-β-D-glucopyranoside as substrate (Bailey and Linko, 1990). […]

Hydrolysis products as reducing sugars, SECS [1]: 3.9 mg/mL
B1: Ta EG_28: endoglucanase of Thermoascus aurantiacus ALKO4242, gene Ta cel5A, amino acid SEQ ID NO: 10 (protein)
chain: MKLGSLVLALSAARLTLSAPLADRKQETKRAKVFQWFGSNESGAEFGSQNLPGVEGKDYIWPDPNTIDTLISKGMNIFRVPFMMERLVPNSMTGSPDPNYLADLIATVNAITQKGAYAVVDPHNYGRYYNSIISSPSDFQTFWKTVASQFASNPLVIFDTNNEYHDMDQTLVLNLNQAAIDGIRSAGATSQYIFVEGNSWTGAWTWTNVNDNMKSLTDPSDKIIYEMHQYLDSDGSGTSATCVSSTIGQERITSATQWLRANGKKGIIGEFAGGANDVCETAITGMLDYMAQNTDVWTGAIWWAAGPWWGDYIFSMEPDNGIAYQQILPILTPYL
pI of the purified protein [2]: about 3.5
